Measured values published in the supplement of paper PMC7125110.
± gives the standard error. Fewer inactive variants are shown than the library holds.

B1: glmS ribozyme (parent)
chain: AUAAAAGCGCCAGAACUACAGAAAUGUAGUUGACGAGGAGGAGGUUUAUCGAAUUUUCGGCGGAUGCCUCCAAA

What was measured:
Conditions in all cases: with glucosamine-6-phosphate
[1] = variants of: B1; experiment: self-cleavage kobs at 40 uM GlcN6P; higher = faster cleavage; RNA array
Method in brief: (§1)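 kcat and KM were obtained from weighted Michaelis–Menten fits across concentrations of kobs values. Those came from one- or two-exponential decay fits to per-tile medians normalised to baseline and to non-cleaving reference variants. The variants were barcoded ribozymes transcribed in situ by E. coli RNA polymerase on sequenced MiSeq chips and tracked through a hybridised Cy3 probe at 37 °C, with 40 μM to 10 mM glucosamine-6-phosphate in HEPES/KCl/Mg(OAc)2 buffer flowed in.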

[2] = variants of: B1; experiment: self-cleavage kobs at 160 uM GlcN6P; higher = faster cleavage; RNA array
Method in brief: as §1

[3] = variants of: B1; experiment: self-cleavage kobs at 640 uM GlcN6P; higher = faster cleavage; RNA array
Method in brief: as §1

[4] = variants of: B1; experiment: self-cleavage kobs at 2500 uM GlcN6P; higher = faster cleavage; RNA array
Method in brief: as §1

[5] = variants of: B1; experiment: self-cleavage kobs at 10000 uM GlcN6P; higher = faster cleavage; RNA array
Method in brief: as §1

Row | Variant | self-cleavage kobs at 40 uM GlcN6P [1] [s⁻¹] | self-cleavage kobs at 160 uM GlcN6P [2] [s⁻¹] | self-cleavage kobs at 640 uM GlcN6P [3] [s⁻¹] | self-cleavage kobs at 2500 uM GlcN6P [4] [s⁻¹] | self-cleavage kobs at 10000 uM GlcN6P [5] [s⁻¹]
1 | AUAAAAGCGCCAGAACUACAGAAAUGUAGUUGACGAGGAGGAGGUUUAUCGAAAUUUCGGCGGAUGGCUCCAAA [U54A C67G] | 8.43e-05 ± 1.3e-05 | 0.000213 ± 4.1e-05 | 0.000297 ± 5.3e-05 | 0.000126 ± 2.2e-05 | 0.00147 ± 0.00055
2 | AUAAAAGCGCCAGAACUACAGAAAUGUAGUUGACGAGGAGGAGGUUUAUCGAAAUUUCGGCGGAUGUCUCCAAA [U54A C67U] | 0.000285 ± 9.7e-05 | 0.000312 ± 9.1e-05 | 0.00116 ± 0.00032 | 0.00976 ± 0.0027 | 0.00584 ± 0.0013
3 | AUAAAAGCGCCAGAACUACAGAAAUGUAGUUGACGAGGAGGAGGUUUAUCGAAGUUUCGGCGGAUGCCUUCAAA [U54G C70U] | 0.00112 ± 0.00013 | 0.000836 ± 0.00011 | 0.00544 ± 0.001 | – | –
4 | AUAAAAGCGCCAGAACUACAGAAAUGUAGUUGACGAGGAGGAGGUUUAUCGAUUUUUCGGCCGAUGCCUCCAAA [A53U G62C] | < 1e-05 | – | < 1e-05 | < 1e-05 | < 1e-05
5 | AUAAAAGCGCCAGAACUACAGAAAUGUAGUUGACGAGGAGGAGGUUUAUCGAAGGUUCGGCGGAUGCCUCCAAA [U54G U55G] | 0.00108 ± 0.00018 | 0.00148 ± 0.00028 | 0.00673 ± 0.0015 | 0.0105 ± 0.0029 | –
6 | AUAAAAGCGCCAGAACUACAGAAAUGUAGUUGACGAGGAGGAGGUUUAUCGAUUUUUCGGCGGAUAUCUCCAAA [A53U G66A C67U] | 7.59e-05 ± 1.6e-05 | – | – | – | 0.00355 ± 0.00067
7 | AUAAAAGCGCCAGAACUACAGAAAUGUAGUUGACGAGGAGGAGGUUUAUCGAAUAUUCGGCAGAUGCCUCCAAA [U55A G62A] | < 1e-05 | – | – | < 1e-05 | –
8 | AUAAAAGCGCCAGAACUACAGAAAUGUAGUUGACGAGGAGGAGGUUUAUCGAUUUUUCGGCGGAUGCCUCUAAA [A53U C71U] | 0.000617 ± 6e-05 | 0.00115 ± 0.0002 | 0.00728 ± 0.0012 | 0.0165 ± 0.0031 | 0.0301 ± 0.0058
9 | AUAAAAGCGCCAGAACUACAGAAAUGUAGUUGACGAGGAGGAGGUUUAUCGAUUUUUCGGCGGAUGCCUCGAAA [A53U C71G] | 9.68e-05 ± 1.3e-05 | 0.000213 ± 7e-05 | 0.000283 ± 4.7e-05 | 0.000247 ± 5.4e-05 | 0.00158 ± 0.00036
10 | AUAAAAGCGCCAGAACUACAGAAAUGUAGUUGACGAGGAGGAGGUUUAUCGAAGUUUCGGCUGAUGCCUCCAAA [U54G G62U] | < 1e-05 | < 1e-05 | < 1e-05 | < 1e-05 | < 1e-05
11 | AUAAAAGCGCCAGAACUACAGAAAUGUAGUUGACGAGGAGGAGGUUUAUCGAAUAUUCGGCGGAUGCCUUCAAA [U55A C70U] | 0.00118 ± 0.00012 | 0.00271 ± 0.00065 | 0.00644 ± 0.0011 | – | –
12 | AUAAAAGCGCCAGAACUACAGAAAUGUAGUUGACGAGGAGGAGGUUUAUCGAUUUGUCGGCGGAUGCCUCCAAA [A53U U56G] | 0.000405 ± 6.8e-05 | 0.000558 ± 0.00015 | 0.00241 ± 0.00042 | 0.00421 ± 0.0011 | 0.0151 ± 0.004
13 | AUAAAAGCGCCAGAACUACAGAAAUGUAGUUGACGAGGAGGAGGUUUAUCGAUUUCUCGGCGGAUGCCUCCAAA [A53U U56C] | 5.21e-05 ± 8e-06 | 0.000101 ± 1.5e-05 | 0.000782 ± 9.1e-05 | 0.00118 ± 0.00021 | 0.0038 ± 0.00042
14 | AUAAAAGCGCCAGAACUACAGAAAUGUAGUUGACGAGGAGGAGGUUUAUCGAUUCUUCGGCGGAUGCCUCCAAA [A53U U55C] | 0.000338 ± 7.3e-05 | 0.00118 ± 0.0004 | 0.00434 ± 0.00089 | 0.00602 ± 0.0019 | 0.0266 ± 0.0065
15 | AUAAAAGCGCCAGAACUACAGAAAUGUAGUUGACGAGGAGGAGGUUUAUCGAAAUUUCGGUGGAUGCCUCGAAA [U54A C61U C71G] | < 1e-05 | – | – | – | –
16 | AUAAAAGCGCCAGAACUACAGAAAUGUAGUUGACGAGGAGGAGGUUUAUCGAAUCUUCGGUGGAUGCUUCCAAA [U55C C61U C68U] | < 1e-05 | – | – | – | < 1e-05
17 | AUAAAAGCGCCAGAACUACAGAAAUGUAGUUGACGAGGAGGAGGUUUAUCGAACUUUCGGCGGAAGCCUCCAAA [U54C U65A] | 6.51e-05 ± 8.4e-06 | – | 0.00147 ± 0.00042 | – | 0.00332 ± 0.00031
18 | AUAAAAGCGCCAGAACUACAGAAAUGUAGUUGACGAGGAGGAGGUUUAUCGAAGUUUCGGCGGCUGACUUCAAA [U54G A64C C67A C70U] | 0.000151 ± 5.2e-05 | 0.000348 ± 0.00013 | 0.000556 ± 0.00017 | 0.000241 ± 0.0001 | 4.58e-05 ± 1.8e-05
19 | AUAAAAGCGCCAGAACUACAGAAAUGUAGUUGACGAGGAGGAGGUUUAUCGAAUAUUCGGCGGAUGCCUCUAAA [U55A C71U] | 0.00109 ± 0.00019 | 0.00212 ± 0.00076 | 0.0121 ± 0.0034 | 0.00755 ± 0.0025 | 0.0549 ± 0.013
